Biological target: bovine submaxillary mucin type I (bovine)
Assay: competition ELISA with biotinylated CC49 SCA, mucin

Substance: non-PEGylated CC49 SCA (Native-CC49) (scFv)
- Kd: 3.6 nM

Substance: biotinylated CC49 SCA (scFv)
- Kd: 6.2 nM
